Data taken from patent US12618044B2, “Specification of functional cranial placode derivatives from human pluripotent stem cells” (MEMORIAL SLOAN-KETTERING CANCER CENTER, priority 2013, dated 2026).

How the values were obtained:
Type in all cases: cell-based, human
[1] = test system: hESC; assay: Floor plate induction from hESC (FOXA2 expression); conditions: for FP competency / FOXA2 induction: added to neural rosette stage cells
Method: (§1) For MS5 induction, established methods previously reported were used (Perrier et al., 2004). Feeder free neural induction was carried out as previously described (Chambers et al., 2009). Briefly, hESCs cultures were disaggregated using accutase for 20 minutes, washed using hESCs media and pre-plated on gelatin for 1 hour at 37° C. in the presence of ROCK inhibitor to remove MEFs. The nonadherent hESCs were washed and plated on matrigel at a density of 20,000 cells/cm2 on matrigel (BD) coated dishes in MEF conditioned hESCs media (CM) spiked with 10 ng/mL of FGF-2 and ROCK-inhibitor. The ROCK inhibitor was withdrawn, and hESCs were allowed to expand in CM for 3 days or until they were nearly confluent. The initial differentiation media conditions included knock out serum replacement (KSR) media with […] TGF-b inhibitor (SB431542, Tocris) and 500 ng/mL of Noggin (R&D). Upon day 5 of differentiation, increasing amounts of N2 media (25%, 50%, 75%) was added to the KSR media every two days while maintaining 500 ng/mL of Noggin and TGF-b inhibitor. For FP induction, Sonic C25II was added at 200 ng/ml. In some experiments, DKK-1 (R&D 100 ng/ml) FGF8 (R&D 50 ng/ml), Wnt-1 (Peprotech 50 ng/ml) and Retinoic Acid (R&D 1 uM) were added.
Tissue was fixed using 4% paraformaldehyde and Picric acid for 15 minutes, washed with PBS, permeabalized using 0.3% Triton X in PBS, and blocked using 10% Donkey Serum. Primary antibodies used for microscopy included PAX6 (Covance), TUJ1 (Covance), ZO1 (Zymed), BF1 (FOXG1, gift E.Lai), TH (Pelfreez), NKX6.1 (DSHB) and FOXA2 (SantaCruz).
Based on the hypothesis that FP specification in the mouse occurs at early developmental stages, at the time of or prior to neural induction, the inventors repeated SHH induction studies at Day 9, the time of rosette specification, using classic stromal-feeder mediated neural induction protocols (Elkabetz et al., 2008). Under this paradigm the inventors noticed a drastic change in cell morphology restricted to the cells treated with SHH-C25II (FIG. 15B). […] In addition to decreased expression of BF1 the inventors also observed decreased expression of PAX6, another maker expressed in the AN (FIG. 1E). […] The inventors performed dose response studies to understand how FP marker induction compared to that of NKX6.1 expression; a gene known to respond to lower concentrations of SHH. […] At higher concentrations FP markers rapidly rise, while NKX6.1 expression tapers off (FIG. 15G).
Using this protocol, in combination with compositions and methods of the present inventions, the inventors aimed to optimize FP differentiation by adding Sonic C25II at different time points during neural induction and assaying for FOXA2 expression. Differentiation was initiated upon NSB exposure, and Sonic C25II was added at Day 1, Day 3, Day 5, or Day 7 (FIG. 16A). […] Furthermore, the differentiation conditions establish a robust platform for inducing human FOXA2+ cells in vitro.

[2] = test system: hESC; assay: Real-Time PCR of pluripotency and germ layer markers in treated hESC
Method: There is also evidence for suppression of alternative embryonic germ layers such as Noggin-mediated suppression of SOX17 (endodermal lineage) and SB431542-mediated suppression of Brachyury (mesodermal lineage) (FIG. 1C).
Total RNA was extracted using an RNeasy kit (Qiagen). For each sample, 1 ug of total RNA was treated for DNA contamination and reverse transcribed using the Quantitect RT kit (Qiagen). Amplified material was detected using Quantitect SYBR green probes and PCR kit (Qiagen) on a Mastercycler RealPlex2 (Eppendorf). Results were normalized to a HPRT control and are from 4-6 technical replicates of 2-3 independent biological samples at each data point.

[3] = test system: hESC derived FP; assay: A/P respecification of hESC derived FP by caudalizing factors
Method: as §1
The inventors contemplated the use of SIX6 as a putative marker of anterior FP identity. Thus SIX6 status of the hESC derived FP was used to mark respecification in response to known caudalizing agents such as FGF8, Wnt-1, and Retinoic Acid. Each of these caudalizing factors was added in combination with SHH and the resulting tissue was assessed for expression of the FP markers FOXA2 and NETRIN-1, the AN marker BF1, and putative anterior FP marker SIX6. FP generation was found not compromised in the presence of caudalizing factors.
The inventors discovered that different factors had varied effects on marker expression (FIG. 20C).
As mentioned above, studies had identified different enhancers that directed SHH expression to different A/P region along ventral axis (Jeong et al., 2008). […] In the absence of caudalizing factors (SHH C25II alone), LacZ expression was observed herein following transfection with the SBE2 but not the SBE1 enhancer supporting the hypothesis that hESC derived FP is anterior by default (FIG. 20D). In contrast SBE2 activity was abolished upon treatment with Wnt1 or FGF8 while SBE1 activity was induced under these conditions.

[4] = test system: hESC; assay: Placode induction from hESC (N-SB versus PIP, SIX1 expression); conditions: pre-placode cells
Method: A timed withdrawal of the BMP inhibitor Noggin during N-SB differentiation was also tested to determine if placodal fates could be induced via derepressing endogenous BMP signaling. A time course analysis was performed during which Noggin was removed at different time points of the N-SB protocol (FIG. 28A).
Withdrawal of the BMP inhibitor noggin during N-SB differentiation may enhance the emergence of placodal fates by de-repressing endogenous BMP signaling. To this end, a time course study was performed by removing noggin at different time points of the NSB protocol (FIG. 11A) while monitoring the induction of placodal marker (FIG. 11B) trophoectodermal, neurectodermal by qRT-PCR analysis at day 11 of differentiation. Withdrawal of noggin at day 2 or 3 of differentiation yielded efficient induction of Six1 while noggin withdrawal at day 1 of differentiation lead to the induction of Eya1 in the absence of Six1 expression.
Neural Induction and placode induction: Feeder-free neural induction was carried out as previously described (Chambers et al., 2009). Briefly, hESCs cultures were disaggregated using accutase for 20 minutes, washed using hESCs media and pre-plated on gelatin for 1 hour at 37° C. in the presence of ROCK inhibitor to remove MEFs. The non-adherent hESCs were washed and plated on matrigel at a density of 60,000 cells/cm2 on matrigel (BD) coated dishes in MEF conditioned hESCs media (CM) spiked with 10 ng/mL of FGF-2 and ROCK-inhibitor. The ROCK inhibitor was withdrawn after 24 hours, and hESCs were allowed to expand in CM for 2 days or until they were 95% confluent. The initial differentiation media conditions included knock out serum replacement (KSR) media with 10 μM TGF-β inhibitor (SB431542, Tocris) and 250 ng/mL of Noggin (R&D). Upon day 5 of differentiation, increasing amounts of N2 media (25%, 50%, and 75%) were added to the KSR media every two days while maintaining […] of Noggin and TGF-β inhibitor. Similar results could be obtained when using KSR-free conditions (E6 medium (Chen et al., 2011)) following adjustments in BMP signaling; data not shown). For placode induction, Noggin was removed at day3 of differentiation. In some experiments, BMP-4 (R&D 50 ng/ml), Noggin (R&D 250 ng/ml), DKK-1 (R&D 100 ng/ml), FGF8 (R&D 50 ng/ml), SU5402 (Tocris 10 μM), Wnt-3a (R&D 50 ng/ml), DAPT (Tocris, 10 μM), CHIR99021 (Stemgent, 3 μM), Cyclopamine (Tocris, 10 μM), Sonic Hedgehog (C25II-R&D 100 ng/ml), and Purmorphamine (Stemgent, 1 μM), were added.
Microscopy, antibodies, and flow cytometry: Cells were fixed using 4% paraformaldehyde for 15 minutes, washed with PBS, permeabilized using 0.3% Triton X in PBS, and blocked using 1% BSA. Primary antibodies used for microscopy included PAX6 (Covance, DSHB), TUJ1 (Covance), BRN3A (Chemicon), AP2a (DSHB), HNK1 (Sigma), PAX3 (DSHB), SIX1 (ABR, Atlas), ISL1 (DSHB), PERIPHERIN (Santa Cruz), GSU (gift A. McNeilly), CRYAB (Chemicon), DACH1 (Proteintech), EYA1 (gift Kawakami), E-CADHERIN (Abcam), FSH (gift A. McNeilly), GATA2 (Abcam), chick GFP (Abcam), hNCAM (Santa Cruz), GLUTAMATE (Sigma), KRT14 (Labvision), SIX6 (Atlas), LHX3 (Abcam), OVOL2 (Aviva), TFAP2A (DSHB), FOXG1 (gift E. Lai), hCA (Stem Cells), and Ki67 (Sigma). Appropriate Alexa 488, Alexa 568, Alexa 647 secondary antibodies (Molecular Probes) and/or DAPI counterstaining was used for visualization. For Flow Cytometry, cells were mechanically dissociated after exposure to accutase for 20 min at 25° C. To eliminate dead cell populations in FACS analysis, we used DAPI or 7-AAD according to manufacturer's recommendation. Cells were analyzed using FACScan (Becton Dickinson) and FlowJo software (Tree Star, Inc.).

[5] = in combination with Sonic C25II

In the case of `O=C1Nc2cc(Br)ccc2/C1=C1/Nc2ccccc2/C1=N\O` [BIO, reference compound], the FOXA2 expression ([1]; added early, BIO 100 nM) is reported as “increase” and the “FP competency / FOXA2 induction” value [1] is reported as “not sufficient”.

`NC(=O)c1ccc(-c2nc(-c3ccc4c(c3)OCO4)c(-c3ccccn3)[nH]2)cc1` [SB431542, 4-[4-(1,3-benzodioxol-5-yl)-5-(2-pyridinyl)-1H-imidazol-2-yl]-benzamide] was tested, and the “Brachyury (mesodermal lineage)” value [2] was “suppression”, the CDX2 expression [2] was “dramatic increase” and the Nanog expression [2] was “rapid loss”.

For Noggin, the CDX2 expression [2] was “Suppression” and the “SOX17 (endodermal lineage)” value [2] was “suppression”.

B1: DKK-1: recombinant DKK-1, Wnt signaling inhibitor (protein, UniProt O94907 32-266, looked up)
Dickkopf-related protein 1: TLNSVLNSNAIKNLPPPLGGAAGHPGSAVSAAPGILYPGGNKYQTIDNYQPYPCAEDEECGTDEYCASPTRGGDAGVQICLACRKRRKRCMRHAMCCPGNYCKNGICVSSDQNHFRGEIEETITESFGNDHSTLDGYSRRTTLSSKMYHTKGQEGSVCLRSSDCASGLCCARHFWSKICKPVLKEGQVCTKHRRKGSHGLEIFQRCYCGEGLSCRIQKDHHQASNSSRLHTCQRH
For B1, the “FOXA2+ cells” value ([1]; added along with SHH at Day1, 9 days of SHH exposure) was “increase”, the BF1 transcript [1, 5] was “more rapid rise” and the “FOXA2 message and protein” value [1, 5] was “decrease”.

B2: Wnt-1: caudalizing factor, wingless-type MMTV integration site family, member 1 (protein, UniProt P04628 28-370, looked up)
Proto-oncogene Wnt-1: ANSSGRWWGIVNVASSTNLLTDSKSLQLVLEPSLQLLSRKQRRLIRQNPGILHSVSGGLQSAVRECKWQFRNRRWNCPTAPGPHLFGKIVNRGCRETAFIFAITSAGVTHSVARSCSEGSIESCTCDYRRRGPGGPDWHWGGCSDNIDFGRLFGREFVDSGEKGRDLRFLMNLHNNEAGRTTVFSEMRQECKCHGMSGSCTVRTCWMRLPTLRAVGDVLRDRFDGASRVLYGNRGSNRASRAELLRLEPEDPAHKPPSPHDLVYFEKSPNFCTYSGRLGTAGTAGRACNSSSPALDGCELLCCGRGHRTRTQRVTERCNCTFHWCCHVSCRNCTHTRVLHECL
In the case of B2, the “midbrain FP markers CORIN and NOV” value [3] is reported as “significant increase”, the SBE1 activity ([3]; SHH enhancer LacZ construct) is reported as “induced” and the SBE2 activity ([3]; SHH enhancer LacZ construct) is reported as “abolished”. The BF1 expression ([3]; in combination with SHH) was “dramatic reduction”, the “FP production based on FOXA2 and Netrin-1 expression” value ([3]; in combination with SHH) was “significantly potentiated” and the SIX6 expression ([3]; in combination with SHH) was “significant reduction”. The “FP competency / FOXA2 induction” value [1] was “not sufficient” and the “FP competency / FOXA2 induction” value ([1]; listed as WNT1) was “no effect”.

B3: Wnt3A: WNT protein, caudalizing cue (protein, UniProt P56704 19-352, looked up)
Protein Wnt-3a: SYPIWWSLAVGPQYSSLGSQPILCASIPGLVPKQLRFCRNYVEIMPSVAEGIKIGIQECQHQFRGRRWNCTTVHDSLAIFGPVLDKATRESAFVHAIASAGVAFAVTRSCAEGTAAICGCSSRHQGSPGKGWKWGGCSEDIEFGGMVSREFADARENRPDARSAMNRHNNEAGRQAIASHMHLKCKCHGLSGSCEVKTCWWSQPDFRAIGDFLKDKYDSASEMVVEKHRESRGWVETLRPRYTYFKVPTERDLVYYEASPNFCEPNPETGSFGTRDRTCNVSSHGIDGCDLLCCGRGHNARAERRREKCRCVFHWCCYVSCQECTRVYDVHTCK
In the case of B3, the “otic placode compatible population” value [4] is reported as “induction of a population of cells coexpressing SIX1 and SOX10” and the “FP competency / FOXA2 induction” value [1] is reported as “not sufficient”.
